Reference: the RNAGym collection of RNA variant scans (doi:10.1073/pnas.2313332121)
Fewer inactive variants are shown than the library holds.

B1: TPR 5TU (parent)
chain: GGAUCUUCUCGAUCUAACAAAAAAGACAAAUCUGCCACAAAGCUUGAGAGCAUCUUCGGAUGCAGAGGCGGCAGCCUUCGGUGGCGCGAUAGCGCCAACGUUCUCAACUAUGACACGCAAAACGCGUGCUCCGUUGAAUGGAGUUUAUCAUG

Variants of: B1
Test: polymerase ribozyme fitness, log enrichment relative to wild type (log ratio); higher = more active; in vitro selection for triplet polymerase activity
Method in brief: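 Mutant libraries of both subunits of a heterodimeric triplet polymerase ribozyme were PCR-built, transcribed, and selected once in triplicate, with frozen incubation at −7 °C and capture of gel-excised extended constructs on streptavidin beads before RT-PCR. Illumina sequencing of input and output libraries was filtered to genotypes with ≥10 input reads and ≥1 read per output. Fitness is the logarithm of genotype enrichment over wild-type enrichment, using inverse-variance-weighted replicate averages. The logarithm is base 2.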
In the case of GGAUCUUCUCGGUCUGACAAAAAAGACAAAACUGCCACAAAGCUUGAGAGCAUCUUCGGAUGCAGAGGCGGCAGCCUUCGGUGGCGCGAUAGCGCCAACGUUCUCAACUAUGACACGCAAAACGAGUGCUCCGUUGAAUGGAGUCUAUCAUG, the “polymerase ribozyme fitness (log ratio)” value is reported as -0.993. For GGAUCUUCUCGAUCUAACAAAAAAGACAAAUCUGCCACAACGCUUGAGAGCAUCUUCGGAUGGAGAGGCGGCAGCCUUCGGUGGCACGAUAGCGCCAACGUUCUCAACUAUGACCCGCAAAACGCGUGCUCCGUUGAAUGGAGUUUAUCAUG, the “polymerase ribozyme fitness (log ratio)” value was -2.61. In the case of GGAUCUUCUCGAUCUAACAAAAAAGACAAAUCUGCCACAAAGCUUGCGAGCAUCUUCGGAUGCAGAGGGGGCAGCCUUCGGUAGCGCGAUAGCGCCAACGUUCUCAACUAUGACACGCGAAACGCGUGCUCCGUUGAAUGGAGUUCAUCAUG, the “polymerase ribozyme fitness (log ratio)” value is reported as -2.18. For GGAUCUUCUCGAUCUAACAAAAAAGACAAAUCUGCCACAAAGCUUGAGAGCAUCUUCGGAUGCAGAGGCGGCAGCCUUCGGUGGCGCGAUAGCGCCUACGUUCUCAACUAUGACACGGAAGACGCGUGCUCCGUUGAAUGGAGUUUAUCAUG, the “polymerase ribozyme fitness (log ratio)” value was -1.56. In the case of GGAUCUUCUUGAUCUAACAAAAAAGACAAAUCAGCCACAAAGCUUGAGGGCAUCUUCGGAUGCAGAGGCGGCAGCUUUCGAUGGCGCGAUAGCGCCAGCGUCCUCAACUAUGACACGCAAAACGCGUGCUCCGUUGCAUUGAGUUUAUCAUG, the “polymerase ribozyme fitness (log ratio)” value is reported as at most -4.2. In the case of GGAUUUUCUCGAUCUAACAAAAAAGUCAAAUCUGCCACAAAGCUUGAGAGCAUCUUCGGAUGCAGAGGCGGCAGCCUUCGGUGGCGCGAUAGCGCCAACGUUCUCAACUAUGACACGCAAAACGCGUGCUCCGUUGAAUGGAGUUUAUCAUG, the “polymerase ribozyme fitness (log ratio)” value is reported as -1.04. With GGAUCUUCUCGAUCUAACAAAAAAGACAAAUCUGCCACAAAGCUAGAGAGCAUCUUCGGGUGCAGCGCUGGCAGCCUUCGGUGGCGCGAUAGCGCCAACGUUCUCAACUAUGACACGCAAAACGCGUGCUCCGUUGAAUGGAGUUUAUCAUG the “polymerase ribozyme fitness (log ratio)” value was at most -4.2. With GGAUCUUCUUGAUCUAACAAAAAAGACAAAUCUGCCACAAAGCUUGAGAGCAUCUACGGAUGCAGACGCGGCAGCCUUCGGUGGCCCGAUAGCGCAAACGUUCUCAACUAUGACACGCAAAACGCUUGCUCCGUUGAAUGGAGUUUAUCAUG the “polymerase ribozyme fitness (log ratio)” value was at most -4.2. For GGAUCUUCUCGAUCUAACAAAAAAGACAAAUCUGCCACAAAGCUUGAGAGCAUCUUCGCAUGCAGAGGCGGCAGCCUUCGGUGGAGCGAUAGCGUCAACGUUCUCAACUAUGACACGCAAAACGCGUGCUCCGUUGCAUGGAGUUUAUCAUG, the “polymerase ribozyme fitness (log ratio)” value was at most -4.2. In the case of GGAUCUUCUCGAUCUAACAAAAAAGACAAAUCUGGCACAAAGCUUGAGAGCAUCUUCGGAUGCAGAGGCGGCAGCGUUCGAGGGCGCGAUAGUGCCAACGUUCUCAACUAUGACACGCAAGACGCGUGCUCCGUUGAAUGGAGUUUAUCAUU, the “polymerase ribozyme fitness (log ratio)” value is reported as -3.58. For GGAUCUUCUCGAUCUAACAAAAAAGACAAAUCUGCCCCAAAGCUUGAGAGCAUCUUCGGAUGCAGAGGCGGCAGCCUUCGGUGGCGUGAUAGCGCCAACGUUCUCAACUAUGACACGCUAAACGCGUCCUCCGUUGAAUGGAGUUUAUCAUG, the “polymerase ribozyme fitness (log ratio)” value was -3.46. With GGAUCUUCUCGAUCUAACAAAAAAGACAAAUCUGCCACAAAGCUUGAGAGCAUCAUCGGAUGCAGAUGGGGCAGCAUUCGGUGGCGCGAUAGCGCCAGCGUUCUCAACUAUGACACGCAAAACGCGUGCUCCGUUGAAUGGAGUUUAUCAUG the “polymerase ribozyme fitness (log ratio)” value was -2.81. For GGAUCUUCUCGAUCUAACAAAAAAGACAAAUCUGUCACAAAGCUUGAGAUCAUCUUCGGAUGCAGAGGCGGCAGCCUUCGGUGGCGCGAUAGGGCCAACGUUCUCAACUAUGACACGCAAAACGCGUGCUCCGUUGAAUGGAGUUUAUCAUG, the “polymerase ribozyme fitness (log ratio)” value was -3.56. For GGAUCUUCUCGAUGUAACAAAAAAGACAAAUGUGCCACAAAGCUUGAGAGCAUCUUCGGAUGCAGAGGCGGCAGCAUUCGGUGGCGCGAUAGCGCCAACGUUCUCAACUAUGACACGCAAAACGCGUGCUCCGUUGAAAGGAGUUUAUCAUG, the “polymerase ribozyme fitness (log ratio)” value was at most -4.2. With GGAACUUCUCGAUCUAACAAAAAAGACAAAUCUGCCACAAAGCUUGAGAGCAUCUUCGGAUGCAGAGGCGGCAGCCUUCGGUGGCGCGAUAGCUCCAACGUCCUCAACUAUGACACGCAAAACGCGUGCUCCGUUGAAUGGAGUUUAUCAUG the “polymerase ribozyme fitness (log ratio)” value was -3.03. With GGAUCUUCUCGAUCUAACAAAAAAGACAAAUCUGCCACAAAGCUGGAGAGCAUCUACGGAUGCAGAGGCGGCAGCCUUCGGUGGCGCAAUAGGGCCAACGUUCUCAACUAUGACACGCGAAACGCGUGCUCCGUUGAAUGGAUUUUAUCAUG the “polymerase ribozyme fitness (log ratio)” value was at most -4.2. With GGAUCUUCUCGAUCUAACAAAAAAGACAAAUCUGCCACAAAGCUUGAGAGCAUCUUCGGAUGCAGAGGCGGCAGCCUUCGGUGACGCGAUAGCGCCAACGUUCUCAACUAUGACACGCAAAACGCGUGCUCCGUUGAAUGGAAUUUAUCAUG the “polymerase ribozyme fitness (log ratio)” value was -1.65. For GGAUCUUCUCGAUCUAACAAGAAAGACAAAUCUGCCACAAAGCUUGAGAGCGUCUUCGGAUGCAGAGGCGGCAGCCUUCGGUGGCGUGAGAGCGCCAACGUUCUCGGCUAUGACACGCAAAACGCGUGCUCCGUUGAAUGGAGUUUAUCAUG, the “polymerase ribozyme fitness (log ratio)” value was at most -4.2. For GGAUCUUCUCGAUCUUACAAAAAAGACAAAUCUGCCACAAAGCUUCAGAGCAUCUUCGGAAGCAGACGCGGCAGCCUUCGGUCGCGCGAUAGCGCCAACGUUCUCAACUAUGACACGCAAAACGCGUGCUCCGUUGAAUGGCGUUUAUCAUG, the “polymerase ribozyme fitness (log ratio)” value was at most -4.2.
